This is an account of results in patent publication US20120294802A1 (ALDERBIO, published 2012).

First the molecules themselves.
T1: human Calcitonin Gene Related Peptide alpha (Homo sapiens, C-terminal amide (-NH2 printed after the last residue F; the filing words it as 'the N-terminal phenylalanine is amidated'); 125I radiolabeled in the receptor binding assay of Example 6)
T1 construct: 37-residue peptide bought from American Peptides and Bachem; Coated directly on plates in the ELISA of the recombinant antibodies; also called CGRPα; CGRP-alpha
T1 peptide: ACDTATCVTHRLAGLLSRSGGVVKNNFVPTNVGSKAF

B1: Antibody Ab2 (antibody, human IgG1, kappa, N297A)
heavy: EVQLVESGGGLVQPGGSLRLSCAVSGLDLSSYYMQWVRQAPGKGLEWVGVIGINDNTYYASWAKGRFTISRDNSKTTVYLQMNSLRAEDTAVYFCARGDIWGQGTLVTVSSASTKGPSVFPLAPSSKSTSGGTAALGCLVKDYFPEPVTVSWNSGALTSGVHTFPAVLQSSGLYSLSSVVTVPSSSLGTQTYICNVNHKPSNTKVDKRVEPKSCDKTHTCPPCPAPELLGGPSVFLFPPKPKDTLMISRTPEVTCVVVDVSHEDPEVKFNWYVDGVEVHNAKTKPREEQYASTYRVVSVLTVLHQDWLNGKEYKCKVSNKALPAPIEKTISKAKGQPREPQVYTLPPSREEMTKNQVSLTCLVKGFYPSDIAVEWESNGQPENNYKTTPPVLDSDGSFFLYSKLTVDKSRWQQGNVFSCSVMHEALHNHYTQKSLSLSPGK
light: QVLTQSPSSLSASVGDRVTINCQASQSVYDNNYLAWYQQKPGKVPKQLIYSTSTLASGVPSRFSGSGSGTDFTLTISSLQPEDVATYYCLGSYDCSSGDCFVFGGGTKVEIKRTVAAPSVFIFPPSDEQLKSGTASVVCLLNNFYPREAKVQWKVDNALQSGNSQESVTEQDSKDSTYSLSSTLTLSKADYEKHKVYACEVTHQGLSSPVTKSFNRGEC
notes: Humanized anti-CGRP antibody, full length
B2: Antibody Ab6 (antibody, human IgG1, kappa, N297A)
heavy: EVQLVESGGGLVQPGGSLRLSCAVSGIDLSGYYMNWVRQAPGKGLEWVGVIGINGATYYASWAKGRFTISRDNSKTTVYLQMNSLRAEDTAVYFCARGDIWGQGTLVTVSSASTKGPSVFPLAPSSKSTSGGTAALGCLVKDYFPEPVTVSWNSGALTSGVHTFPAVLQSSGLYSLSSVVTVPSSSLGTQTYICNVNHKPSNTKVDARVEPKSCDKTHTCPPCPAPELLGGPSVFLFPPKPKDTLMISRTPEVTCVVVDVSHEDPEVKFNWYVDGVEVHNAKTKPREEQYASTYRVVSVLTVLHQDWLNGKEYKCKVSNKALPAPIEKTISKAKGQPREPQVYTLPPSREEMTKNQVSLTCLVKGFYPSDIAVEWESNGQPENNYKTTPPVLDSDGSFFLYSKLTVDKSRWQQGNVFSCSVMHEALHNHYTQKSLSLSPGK
light: QVLTQSPSSLSASVGDRVTINCQASQSVYHNTYLAWYQQKPGKVPKQLIYDASTLASGVPSRFSGSGSGTDFTLTISSLQPEDVATYYCLGSYDCTNGDCFVFGGGTKVEIKRTVAAPSVFIFPPSDEQLKSGTASVVCLLNNFYPREAKVQWKVDNALQSGNSQESVTEQDSKDSTYSLSSTLTLSKADYEKHKVYACEVTHQGLSSPVTKSFNRGEC
notes: as for B1
B3: Antibody Ab5 (antibody, human IgG1, kappa, N297A)
heavy: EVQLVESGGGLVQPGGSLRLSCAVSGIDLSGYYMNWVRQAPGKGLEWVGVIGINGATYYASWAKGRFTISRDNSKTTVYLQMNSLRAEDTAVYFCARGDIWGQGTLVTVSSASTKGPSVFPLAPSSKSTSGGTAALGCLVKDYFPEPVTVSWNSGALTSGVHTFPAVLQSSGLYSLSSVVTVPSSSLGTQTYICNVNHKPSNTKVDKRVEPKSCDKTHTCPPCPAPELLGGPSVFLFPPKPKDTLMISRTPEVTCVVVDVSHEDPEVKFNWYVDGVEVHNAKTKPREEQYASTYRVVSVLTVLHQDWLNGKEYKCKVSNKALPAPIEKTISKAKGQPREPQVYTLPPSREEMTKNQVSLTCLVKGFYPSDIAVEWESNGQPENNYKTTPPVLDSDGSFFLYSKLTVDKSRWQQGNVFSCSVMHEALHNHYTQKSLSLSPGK
light: QVLTQSPSSLSASVGDRVTINCQASQSVYHNTYLAWYQQKPGKVPKQLIYDASTLASGVPSRFSGSGSGTDFTLTISSLQPEDVATYYCLGSYDCTNGDCFVFGGGTKVEIKRTVAAPSVFIFPPSDEQLKSGTASVVCLLNNFYPREAKVQWKVDNALQSGNSQESVTEQDSKDSTYSLSSTLTLSKADYEKHKVYACEVTHQGLSSPVTKSFNRGEC
B4: Antibody Ab8 (antibody, human IgG1, kappa, N297A, V domains shown)
VH: EVQLVESGGGLVQPGGSLRLSCAVSGIDLSNHYMQWVRQAPGKGLEWVGVVGINGRTYYASWAKGRFTISRDNSKTTVYLQMNSLRAEDTAVYFCARGDIWGQGTLVTVSS
VL: QVLTQSPSSLSASVGDRVTINCQASQSVYNYNYLAWYQQKPGKVPKQLIYSTSTLASGVPSRFSGSGSGTDFTLTISSLQPEDVATYYCLGSYDCSTGDCFVFGGGTKVEIKR
notes: as for B1
B5: Antibody Ab14 (antibody, human IgG1, kappa, N297A)
heavy: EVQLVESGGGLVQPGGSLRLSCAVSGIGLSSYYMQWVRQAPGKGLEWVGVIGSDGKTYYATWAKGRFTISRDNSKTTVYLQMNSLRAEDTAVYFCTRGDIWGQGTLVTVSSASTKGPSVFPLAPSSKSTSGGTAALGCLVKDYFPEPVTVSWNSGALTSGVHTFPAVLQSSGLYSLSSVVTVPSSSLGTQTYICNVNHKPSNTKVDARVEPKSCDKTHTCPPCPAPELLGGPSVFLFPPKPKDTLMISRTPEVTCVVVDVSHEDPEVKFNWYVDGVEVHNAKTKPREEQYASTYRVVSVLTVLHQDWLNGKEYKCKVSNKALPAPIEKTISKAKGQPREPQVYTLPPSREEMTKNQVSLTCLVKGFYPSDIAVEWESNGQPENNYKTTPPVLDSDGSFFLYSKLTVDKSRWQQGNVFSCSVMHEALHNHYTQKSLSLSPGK
light: QVLTQSPSSLSASVGDRVTINCQASQNVYNNNYLAWYQQKPGKVPKQLIYSTSTLASGVPSRFSGSGSGTDFTLTISSLQPEDVATYYCLGSYDCSRGDCFVFGGGTKVEIKRTVAAPSVFIFPPSDEQLKSGTASVVCLLNNFYPREAKVQWKVDNALQSGNSQESVTEQDSKDSTYSLSSTLTLSKADYEKHKVYACEVTHQGLSSPVTKSFNRGEC
notes: as for B1
B6: Antibody Ab10 (antibody, human IgG1, kappa, N297A)
heavy: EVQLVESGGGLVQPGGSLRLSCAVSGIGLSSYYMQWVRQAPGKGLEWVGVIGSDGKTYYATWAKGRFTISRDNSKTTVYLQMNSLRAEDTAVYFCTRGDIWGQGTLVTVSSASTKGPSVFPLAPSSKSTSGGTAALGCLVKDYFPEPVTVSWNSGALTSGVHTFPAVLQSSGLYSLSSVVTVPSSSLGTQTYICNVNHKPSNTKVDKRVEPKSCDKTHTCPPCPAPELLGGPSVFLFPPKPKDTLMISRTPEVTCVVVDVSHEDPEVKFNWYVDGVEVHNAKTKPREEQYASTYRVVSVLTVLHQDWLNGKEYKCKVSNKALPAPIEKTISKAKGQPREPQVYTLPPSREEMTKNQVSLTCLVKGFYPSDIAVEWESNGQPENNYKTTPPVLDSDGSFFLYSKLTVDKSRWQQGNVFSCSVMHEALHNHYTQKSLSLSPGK
light: QVLTQSPSSLSASVGDRVTINCQASQNVYNNNYLAWYQQKPGKVPKQLIYSTSTLASGVPSRFSGSGSGTDFTLTISSLQPEDVATYYCLGSYDCSRGDCFVFGGGTKVEIKRTVAAPSVFIFPPSDEQLKSGTASVVCLLNNFYPREAKVQWKVDNALQSGNSQESVTEQDSKDSTYSLSSTLTLSKADYEKHKVYACEVTHQGLSSPVTKSFNRGEC
notes: as for B1
B7: Antibody Ab12 (antibody, human IgG1, kappa, N297A, V domains shown)
VH: EVQLVESGGGLVQPGGSLRLSCAVSGIDVTNYYMQWVRQAPGKGLEWVGVIGVNGKRYYASWAKGRFTISRDNSKTTVYLQMNSLRAEDTAVYFCARGDIWGQGTLVTVSS
VL: QVLTQSPSSLSASVGDRVTINCRASQSVYYNNYLAWYQQKPGKVPKQLIYSTSTLASGVPSRFSGSGSGTDFTLTISSLQPEDVATYYCLGSYDCSNGDCFVFGGGTKVEIKR
notes: as for B1
B8: Antibody Ab3 (antibody, human IgG1, kappa, N297A)
heavy: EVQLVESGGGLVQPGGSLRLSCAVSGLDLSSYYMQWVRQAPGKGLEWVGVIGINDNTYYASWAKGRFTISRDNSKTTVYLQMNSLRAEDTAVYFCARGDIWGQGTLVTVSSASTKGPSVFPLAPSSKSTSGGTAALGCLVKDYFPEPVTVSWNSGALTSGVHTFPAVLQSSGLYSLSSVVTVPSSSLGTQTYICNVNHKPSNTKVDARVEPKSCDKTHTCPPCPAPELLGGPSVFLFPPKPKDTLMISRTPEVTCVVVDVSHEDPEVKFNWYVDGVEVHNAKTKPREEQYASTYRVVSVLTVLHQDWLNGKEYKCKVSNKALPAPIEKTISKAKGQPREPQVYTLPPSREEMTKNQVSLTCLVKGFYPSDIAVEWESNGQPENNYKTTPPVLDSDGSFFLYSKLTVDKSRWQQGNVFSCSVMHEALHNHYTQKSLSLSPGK
light: QVLTQSPSSLSASVGDRVTINCQASQSVYDNNYLAWYQQKPGKVPKQLIYSTSTLASGVPSRFSGSGSGTDFTLTISSLQPEDVATYYCLGSYDCSSGDCFVFGGGTKVEIKRTVAAPSVFIFPPSDEQLKSGTASVVCLLNNFYPREAKVQWKVDNALQSGNSQESVTEQDSKDSTYSLSSTLTLSKADYEKHKVYACEVTHQGLSSPVTKSFNRGEC
B9: Antibody Ab1 (antibody, human IgG1, kappa, N297A, V domains shown)
VH: QSLEESGGRLVTPGTPLTLTCTVSGLDLSSYYMQWVRQAPGKGLEWIGVIGINDNTYYASWAKGRFTISRASSTTVDLKMTSLTTEDTATYFCARGDIWGPGTLVTVSS
VL: QVLTQTASPVSAAVGSTVTINCQASQSVYDNNYLAWYQQKPGQPPKQLIYSTSTLASGVSSRFKGSGSGTQFTLTISDLECADAATYYCLGSYDCSSGDCFVFGGGTEVVVKR
notes: Chimeric anti-CGRP antibody (rabbit variable regions, human gamma-1 and kappa constant regions), full length
B10: Antibody Ab11 (antibody, human IgG1, kappa, N297A, V domains shown)
VH: QSLEESGGRLVTPGGSLTLTCTVSGIDVTNYYMQWVRQAPGKGLEWIGVIGVNGKRYYASWAKGRFTISKTSSTTVDLKMTSLTTEDTATYFCARGDIWGPGTLVTVSS
VL: QVLTQTASPVSPAVGSTVTINCRASQSVYYNNYLAWYQQKPGQPPKQLIYSTSTLASGVSSRFKGSGSGTQFTLTISDVQCDDAATYYCLGSYDCSNGDCFVFGGGTEVVVKR
notes: Chimeric anti-CGRP antibody, full length
B11: Antibody Ab4 (antibody, human IgG1, kappa, N297A, V domains shown)
VH: QSLEESGGRLVTPGTPLTLTCSVSGIDLSGYYMNWVRQAPGKGLEWIGVIGINGATYYASWAKGRFTISKTSSTTVDLKMTSLTTEDTATYFCARGDIWGPGTLVTVSS
VL: QVLTQTPSPVSAAVGSTVTINCQASQSVYHNTYLAWYQQKPGQPPKQLIYDASTLASGVPSRFSGSGSGTQFTLTISGVQCNDAAAYYCLGSYDCTNGDCFVFGGGTEVVVKR
B12: Antibody Ab7 (antibody, human IgG1, kappa, N297A, V domains shown)
VH: QEQLKESGGRLVTPGTSLTLTCTVSGIDLSNHYMQWVRQAPGKGLEWIGVVGINGRTYYASWAKGRFTISRTSSTTVDLKMTRLTTEDTATYFCARGDIWGPGTLVTVSS
VL: QVLTQTASPVSAAVGSTVTINCQASQSVYNYNYLAWYQQKPGQPPKQLIYSTSTLASGVSSRFKGSGSGTQFTLTISDVQCDDAATYYCLGSYDCSTGDCFVFGGGTEVVVKR
notes: as for B10
B13: Antibody Ab9 (antibody, human IgG1, kappa, N297A, V domains shown)
VH: QSLEESGGRLVTPGTPLTLTCTVSGIGLSSYYMQWVRQSPGRGLEWIGVIGSDGKTYYATWAKGRFTISKTSSTTVDLRMASLTTEDTATYFCTRGDIWGPGTLVTVSS
VL: QVLTQTPSPVSAAVGSTVTINCQASQNVYNNNYLAWYQQKPGQPPKQLIYSTSTLASGVSSRFRGSGSGTQFTLTISDVQCDDAATYYCLGSYDCSRGDCFVFGGGTEVVVKR
notes: as for B10

This assay concerns the target T1, human Calcitonin Gene Related Peptide …. Put plainly: ELISA, plates coated with CGRPα, anti-human IgG Fc-HRP detection. The protocol:
To characterize recombinant expressed antibodies for their ability to bind to human-CGRPα, antibody-containing solutions were tested by ELISA. All incubations were done at room temperature. Briefly, Immulon IV plagtes (Thermo Scientific), were coated with a CGRPα containing solution (1 ut/mL in PBS) for 2 hours. CGRPα-coated plates were then washed three times in wash buffer (PBS, 0.05% Tween-20). The plates were then blocked using a blocking solution (PBS, 0.5% fish skin gelatin, 0.05% Tween-20) for approximately one hour. The blocking solution was then removed and the plates were then incubated with a dilution series of the antibody being tested for approximately one hour. At the end of this incubation, the plate was washed three times with wash buffer and further incubated with a secondary antibody containing solution (Peroxidase conjugated affinipure F(ab′)2 fragment goat anti-human IgG, Fc fragment specific (Jackson Immunoresearch) for approximately 45 minutes and washed three times. At that point a substrate solution (TMB peroxidase substrate, BioFx) and incubated for 3 to 5 minutes in the dark. The reaction was stopped by addition of a HCl containing solution (0.5M) and the plate was read at 450 nm in a plate-reader.
Turning to B1, the binding result is “binds”.

Consider B2, for which the binding result is “binds”.

Turning to B3, the binding result is on record as “binds”.

Consider B4, for which the binding result is given as “binds”.

For the molecule B5, the binding result is recorded as “binds”.

Take B6: the binding result was “binds”.

With B7, the binding result is given as “binds”.

Take B8: the binding result was “binds”.

As to B9, the binding result is on record as “binds”.

As to B10, the binding result is given as “binds”.

On to B11, for which the binding result was “binds”.

For B12, the binding result was “binds”.

Consider B13, for which the binding result was “binds”.
